Source: publication PMC6375223

Biological target: SKP2 (UniProt Q13309)
Assay: co-immunoprecipitation from transfected 293T cells
Conditions: reference: wild-type PDCD4; sites S67

PDCD4 (from UniProt Q53EL6) PDCD4 S67A
binding against the reference: lost
